Measured values taken from patent US20130035249A1.

How the values were obtained:
[1] = target: full-length human CEA (human) (UniProt P06731); assay: binding to CHO cells expressing full-length CEA (method of the KD not described)
[2] = target: full-length human CEA (human) (UniProt P06731); assay: binding to CHO cells co-expressing full-length CEA and the CEA splice variant (method of the KD not described)

Kd [1]: 5 nM
Kd [2]: 5.6 nM
Substance: MEDI-565 (bispecific antibody)
